# Measured values: the nanobody polyreactivity screen of Harvey et al. (2022)
# Experiment: yeast display, Sf9 membrane polyspecificity reagent, FACS + sequencing; frameworks hold sequencing errors
# Procedure, shortened: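 Nanobodies came from a synthetic yeast display library in Saccharomyces cerevisiae BJ5465, induced with galactose for 36–48 hours and stained for 1 hour at 4 °C with 10% biotinylated, detergent-solubilized Sf9 membrane reagent. Cells were enriched on streptavidin microbeads and then FACS-sorted, with low and high (top ~1%) gates set on anti-HA fluorescence for expression and streptavidin fluorescence for reagent binding. Each polyreactivity label reflects the gate a clone came from. Genes were amplified by colony PCR, sequenced by MiSeq 2 × 250 and filtered by CDR length.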
row,Sequence,polyreactivity (PSR sort gate)
1,QVQLVESGGGLVQAGGSLRLSCAASGRIFAHYAMGWYRQAPGKERELVADIRQSGGRTYYADSVKGRFTISRDNAKNTVYLKMNSLKPEDTAVYFCATDYGSWGDYSGKYDYWGQGTQVTVSS,low polyreactivity
2,QVHLVESGGGLVQAGGSLRLSCAASGRLLVLNDMGWYRPEPGKVMELVADITSGGSTYYADSVKGRFTISRDNAKKTDYLQMNSLKPEDPAVYYCAADWNTYPDYQQSYFVSYEYNYWGQGTQVTVSS,low polyreactivity
3,QVQLVESGGGLVQAGGSLRLSCAASGSIFEFNAMGWYRQAPGKERELVAAITWGGGSTYYADSVKGRFTISRDNAKNTVYLQMNSLKPEDTAVYYCNAAYGRYRYDYWGQGTQVTVSS,low polyreactivity
4,QVQLVESGGGLVQAGGSLRLSCAASGGTFSTSAMGWYRQAPGKERELVAAISLSGVRTYYADSVKGRFTISRDNAKNTVYLQMNSLKAEVTAVDYCATRPYSPWRLYYWGQGTQVTGSS,high polyreactivity
5,QVHLVESGGRLVQAGGSLRLSCAASGGTFYQYTMGWYRQAPGKERELVAAITRSGGSTRYADTVKGRFTISRDNAKNTVYLQMNSLKPEDTAVFYCAARSGYPSFEYWGPGTQVTVSS,high polyreactivity
6,QVQLVESGGGLVQAGGSLRLSCAASGRTFYDYARGWYRQGPGKERELVAAITSGGSTNYADSVKGRFTISRDNAKNTVYLQMNSLKPEDTAVYYCAADDCYVWGFDMNYWGQGTQVTVSS,high polyreactivity
7,QVQLVESGGGLVQAGGSLRLSCAASGRTFYLNAMGWYRQAPGKEREFVARITWSGGSTYYADSVKGRFTISRDNAKNTVYLQMNSLKPEDTAVYYCIRLSSYHMDYWGQGTQVTVSS,high polyreactivity
8,QVQHVESGGGLVQAGGSLRLICAASGLTFPYYAMGWYRQDAGKVSELVAAITWSGGTTDYADSVKGRFTISRDNAKNTVYFKMITLKPEDTAVYFCAARVLWKGYYWGQGTQVTVSS,low polyreactivity
9,QVQLVESGGGLVQAGGSLRLSCAASGSTFNDYAMGWYRQAPGKERELVASIRYSGGGTYYADSVKGRFTISRDNAKNTVYLQMNSLKPEDTAVYYCAKDTHLLNEHSGTSREYDYWGQGTQVTVSS,low polyreactivity
10,QVHLVESGGGLVQAGGSLRLSCAASGRTFYTYAMGWYRQATGKERELVAVIRRDGSTSYADSVKGRFTISRDNAKNTVFLQKNSLKPEDTAVYYCAVTRRGEYYWGQGTQVTVSS,high polyreactivity
11,QVQLVESGGGLVQAGGSLRLSCAASGSIFDSNAMGRYRQAPGKERELVAAISLSGGSTYYADSVKGRFTISRDNAKNTVYLQMNSLKPVDTAVYYCAKDGWYEYYWGQGTQVTVSS,low polyreactivity
12,QVQLVESGGGLVQAGGSLRLSSAASGRTFYRHAMGWYRQAPGKERELVAASTRSGSTNYADSVKGRFTISRDNAKNTVYLQMNSLKPEDTADYYCAAKFFRNTYSYGMDYWGQGTQVTVSS,high polyreactivity
13,QVQLVESGGGLVQAGGRLRLSCAASGRIFSAYAMGWYRQAPGKERELVAAISRSGGRTYYADSVKGRFTISRDNAKNTVYLQMNSLKPEDTAVYYCAAARFAIVRGDYWGQGTQVTVSS,high polyreactivity
14,QVQLVESGGGLVHAGGSLRLSCAASGRTLWGYVMGWYREAPGKERELVAVITASGGSTYYADSVNGRFTISRDNAKNTVYLQMYSLKPEDTAVYYCNADSRAERYFWSFVENDYWVQGTQVTVSS,low polyreactivity
15,QVQLVESGGGLVQAGGSLRLSCAASGSTFGRNTMGWYRQAPGKERELVAAISKSGGSTRYADSVKGRFTISRDNAKNTVYLQMNSVKPEDTAVYYCAARVYSLGYGGDYWGQGTQVTVSS,high polyreactivity
16,QVQLVESGGGLVQAGGSLRLSCAASGRIFAYYVMGWYRQAPAKERELVASISSGGGTYYADSVKGRFTISRDNAKNTVYLQMNSLKPEDTAVYYCAARWLRYVYPDGHLFWYDYWGQGTQVTVSS,high polyreactivity
17,QVQLVESGGGLVQAVGSLRLSCAASGSIFQPYAMGWYRQAPGKERELVAAISIGDSTNYADSVKGRFTISRDNAKNTVYLQMNSLKPEDTAVYYCNTTGEYYDYWGQGTQVTVSS,low polyreactivity
18,QVQLVESGGGLVQAGGSLRLSCAASGRTFYYYAMGWYRQAPGKERELVAAISWTGGNTYYADSVKGRFTISRDNAKNTVYLQMNSLKPEDTAVYYCAKQTRGYVRGPMYYWGQGTQVTVSS,high polyreactivity
19,QVQLVESGGGLVQAGGSLRLSCAASGNTFYGYAMGWYRQAPGKERELVAAITKTGGSTYYADSVKGRFTISRDNAKNTVYLQMNSLKPEDTAVYYCNAARETRPRDYYWGQGTQVTVSS,low polyreactivity
20,QVQLVESGGGLVQAGGSLGLSCAASGRTFGYYAMGWYRQAPGTERALVAAIRSTGSTNYADSVKGRFTISRDNAKNTVYLQMNSLIPEDTAVYYCYAKRRFRYDYWGQGTQVTVSS,low polyreactivity
21,QVQLVESGGGLVQEGGSLRLSCAASGSTFWANAMGWYRQAPGKERELVAGITWNAGSTYYADSVKGRFTISRVDANNSVYLHMNSLKPEDTAVYYCAAFYHFQGWGPGYISWGQGTQVSVSS,low polyreactivity
